The labels stand for the following.
B1: 005-C04-L2-1-3-2 (Fab, V domains shown)
VH: EVQLLESGGGLVQPGGSLRLSCAASGFTFSSYWNHWVRQAPGKGLEWVSDMARLSSYTNYADSVKGRFTISRDNSKNTLYLQMNSLRAEDTAVYYCARGLDARRMDYWGQGTLVTVTS
VL: QSVLTQPPSASGTPGQRVTISCTGSSSNIGAGYVVHWYQQLPGTAPKLLIYRNNVRQSGVPDRFSGSKSGTSASLAISGLRSEDEADYYCAAWDDSLNGWLFGGGTKLTVLG
notes: Maturated 005-C04 variant; Fab in E. coli supernatant, flag-detected
B2: 005-C04-L2-1-23-7 (Fab, V domains shown)
VH: EVQLLESGGGLVQPGGSLRLSCAASGFTFSSYWNHWVRQAPGKGLEWVSDISRASPYTGYADSVKGRFTISRDNSKNTLYLQMNSLRAEDTAVYYCARGLDARRMDYWGQGTLVTVTS
VL: QSVLTQPPSASGTPGQRVTISCTGSSSNIGAGYVVHWYQQLPGTAPKLLIYRNNWRPSGVPDRFSGSKSGTSASLAISGLRSEDEADYYCAAWDDSLNGWLFGGGTKLTVLG
notes: as for B1
B3: 005-C04-L2-1-33-7 (Fab, V domains shown)
VH: EVQLLESGGGLVQPGGSLRLSCAASGFTFSSYWNHWVRQAPGKGLEWVSDIARLSPYTGYADSVKGRFTISRDNSKNTLYLQMNSLRAEDTAVYYCARGLDARRMDYWGQGTLVTVTS
VL: QSVLTQPPSASGTPGQRVTISCTGSSSNIGAGYVVHWYQQLPGTAPKLLIYRNNVRQSGVPDRFSGSKSGTSASLAISGLRSEDEADYYCAAWDDSLNGWLFGGGTKLTVLG
notes: as for B1
B4: 005-C04-L2-1-25-0 (Fab, V domains shown)
VH: EVQLLESGGGLVQPGGSLRLSCAASGFTFSSYWWHWVRQAPGKGLEWVSDIARASSYTNYADSVKGRFTISRDNSKNTLYLQMNSLRAEDTAVYYCARGLDARRMDYWGQGTLVTVTS
VL: QSVLTQPPSASGTPGQRVTISCTGSSSNIGAGYVVHWYQQLPGTAPKLLIYRNNWRPSGVPDRFSGSKSGTSASLAISGLRSEDEADYYCAAWDDSLNGWLFGGGTKLTVLG
notes: as for B1
B5: 005-C04-L2-1-20-0 (Fab, V domains shown)
VH: EVQLLESGGGLVQPGGSLRLSCAASGFTFSSYWWHWVRQAPGKGLEWVSDMSRLSSYTNYADSVKGRFTISRDNSKNTLYLQMNSLRAEDTAVYYCARGLDARRMDYWGQGTLVTVTS
VL: QSVLTQPPSASGTPGQRVTISCTGSSSNIGAGYVVHWYQQLPGTAPKLLIYRNNVRQSGVPDRFSGSKSGTSASLAISGLRSEDEADYYCAAWDDSLNGWLFGGGTKLTVLG
notes: as for B1
B6: 005-C04-L2-1-31-7 (Fab, V domains shown)
VH: EVQLLESGGGLVQPGGSLRLSCAASGFTFSSYWWHWVRQAPGKGLEWVSDIARLSPYTNYADSVKGRFTISRDNSKNTLYLQMNSLRAEDTAVYYCARGLDARRMDYWGQGTLVTVTS
VL: QSVLTQPPSASGTPGQRVTISCTGSSSNIGAGYVVHWYQQLPGTAPKLLIYRNNWRQSGVPDRFSGSKSGTSASLAISGLRSEDEADYYCAAWDDSLNGWLFGGGTKLTVLG
notes: as for B1
B7: 005-C04-L2-1-21-7 (Fab, V domains shown)
VH: EVQLLESGGGLVQPGGSLRLSCAASGFTFSSYWWHWVRQAPGKGLEWVSDMSRLSSYTNYADSVKGRFTISRDNSKNTLYLQMNSLRAEDTAVYYCARGLDARRMDYWGQGTLVTVTS
VL: QSVLTQPPSASGTPGQRVTISCTGSSSNIGAGYVVHWYQQLPGTAPKLLIYRNNQRQSGVPDRFSGSKSGTSASLAISGLRSEDEADYYCAAWDDSLNGWLFGGGTKLTVLG
notes: as for B1
B8: 005-C04-L2-1-28-7 (Fab, V domains shown)
VH: EVQLLESGGGLVQPGGSLRLSCAASGFTFSSYWNHWVRQAPGKGLEWVSDMSSLSSYTGYADSVKGRFTISRDNSKNTLYLQMNSLRAEDTAVYYCARGLDARRMDYWGQGTLVTVTS
VL: QSVLTQPPSASGTPGQRVTISCTGSSSNIGAGYVVHWYQQLPGTAPKLLIYRNNVRQSGVPDRFSGSKSGTSASLAISGLRSEDEADYYCAAWDDSLNGWLFGGGTKLTVLG
notes: as for B1
B9: 005-C04-L2-1-16-4 (Fab, V domains shown)
VH: EVQLLESGGGLVQPGGSLRLSCAASGFTFSSYWNHWVRQAPGKGLEWVSDMSRLSSYTNYADSVKGRFTISRDNSKNTLYLQMNSLRAEDTAVYYCARGLDARRMDYWGQGTLVTVTS
VL: QSVLTQPPSASGTPGQRVTISCTGSSSNIGAGYVVHWYQQLPGTAPKLLIYRNNWRPSGVPDRFSGSKSGTSASLAISGLRSEDEADYYCAAWDDSLNGWLFGGGTKLTVLG
notes: as for B1
B10: 005-C04-L2-1-11-0 (Fab, V domains shown)
VH: EVQLLESGGGLVQPGGSLRLSCAASGFTFSSYWWHWVRQAPGKGLEWVSDMARLSSYTNYADSVKGRFTISRDNSKNTLYLQMNSLRAEDTAVYYCARGLDARRMDYWGQGTLVTVTS
VL: QSVLTQPPSASGTPGQRVTISCTGSSSNIGAGYVVHWYQQLPGTAPKLLIYRNNVRQSGVPDRFSGSKSGTSASLAISGLRSEDEADYYCAAWDDSLNGWLFGGGTKLTVLG
notes: as for B1
B11: 005-C04-L2-1-25-7 (Fab, V domains shown)
VH: EVQLLESGGGLVQPGGSLRLSCAASGFTFSSYWWHWVRQAPGKGLEWVSDIARASSYTNYADSVKGRFTISRDNSKNTLYLQMNSLRAEDTAVYYCARGLDARRMDYWGQGTLVTVTS
VL: QSVLTQPPSASGTPGQRVTISCTGSSSNIGYGYVVHWYQQLPGTAPKLLIYRNNWRPSGVPDRFSGSKSGTSASLAISGLRSEDEADYYCAAWDDSLNGWLFGGGTKLTVLG
notes: as for B1
B12: 005-C04-L2-1-20-1 (Fab, V domains shown)
VH: EVQLLESGGGLVQPGGSLRLSCAASGFTFSSYWWHWVRQAPGKGLEWVSDIARASSYTNYADSVKGRFTISRDNSKNTLYLQMNSLRAEDTAVYYCARGLDARRMDYWGQGTLVTVTS
VL: QSVLTQPPSASGTPGQRVTISCTGSSSNIGYGYVVHWYQQLPGTAPKLLIYRNNWRPSGVPDRFSGSKSGTSASLAISGLRSEDEADYYCAAWDDSLNGWLFGGGTKLTVLG
notes: as for B1
B13: 005-C04-L2-1-25-4 (Fab, V domains shown)
VH: EVQLLESGGGLVQPGGSLRLSCAASGFTFSSYWNHWVRQAPGKGLEWVSDISRLSPYTNYADSVKGRFTISRDNSKNTLYLQMNSLRAEDTAVYYCARGLDARRMDYWGQGTLVTVTS
VL: QSVLTQPPSASGTPGQRVTISCTGSSSNIGAGYVVHWYQQLPGTAPKLLIYRNNQRQSGVPDRFSGSKSGTSASLAISGLRSEDEADYYCAAWDDSLNGWLFGGGTKLTVLG
notes: as for B1
B14: 005-C04-L2-1-38-3 (Fab, V domains shown)
VH: EVQLLESGGGLVQPGGSLRLSCAASGFTFSSYWNHWVRQAPGKGLEWVSDISRLSSYTNYADSVKGRFTISRDNSKNTLYLQMNSLRAEDTAVYYCARGLDARRMDYWGQGTLVTVTS
VL: QSVLTQPPSASGTPGQRVTISCTGSSSNIGYGYVVHWYQQLPGTAPKLLIYRNNWRPSGVPDRFSGSKSGTSASLAISGLRSEDEADYYCAAWDDSLNGWLFGGGTKLTVLG
notes: as for B1
B15: 005-C04-L2-1-11-3 (Fab, V domains shown)
VH: EVQLLESGGGLVQPGGSLRLSCAASGFTFSSYWNHWVRQAPGKGLEWVSDMSSLSSYTNYADSVKGRFTISRDNSKNTLYLQMNSLRAEDTAVYYCARGLDARRMDYWGQGTLVTVTS
VL: QSVLTQPPSASGTPGQRVTISCTGSSSNIGAGYVVHWYQQLPGTAPKLLIYRNNVRPSGVPDRFSGSKSGTSASLAISGLRSEDEADYYCAAWDDSLNGWLFGGGTKLTVLG
notes: as for B1
B16: 005-C04-L2-1-12-4 (Fab, V domains shown)
VH: EVQLLESGGGLVQPGGSLRLSCAASGFTFSSYWNHWVRQAPGKGLEWVSDIARLSSYTNYADSVKGRFTISRDNSKNTLYLQMNSLRAEDTAVYYCARGLDARRMDYWGQGTLVTVTS
VL: QSVLTQPPSASGTPGQRVTISCTGSSSNIGAGYVVHWYQQLPGTAPKLLIYRNNWRPSGVPDRFSGSKSGTSASLAISGLRSEDEADYYCAAWDDSLNGWLFGGGTKLTVLG
notes: as for B1
B17: 005-C04-L2-1-4-5 (Fab, V domains shown)
VH: EVQLLESGGGLVQPGGSLRLSCAASGFTFSSYWWHWVRQAPGKGLEWVSDISRASSYTNYADSVKGRFTISRDNSKNTLYLQMNSLRAEDTAVYYCARGLDARRMDYWGQGTLVTVTS
VL: QSVLTQPPSASGTPGQRVTISCTGSSSNIGYGYVVHWYQQLPGTAPKLLIYRNNWRPSGVPDRFSGSKSGTSASLAISGLRSEDEADYYCAAWDDSLNGWLFGGGTKLTVLG
notes: as for B1
B18: 005-C04-L2-1-25-5 (Fab, V domains shown)
VH: EVQLLESGGGLVQPGGSLRLSCAASGFTFSSYWNHWVRQAPGKGLEWVSDMASLSPYTGYADSVKGRFTISRDNSKNTLYLQMNSLRAEDTAVYYCARGLDARRMDYWGQGTLVTVTS
VL: QSVLTQPPSASGTPGQRVTISCTGSSSNIGAGYVVHWYQQLPGTAPKLLIYRNNQRQSGVPDRFSGSKSGTSASLAISGLRSEDEADYYCAAWDDSLNGWLFGGGTKLTVLG
notes: as for B1
B19: 005-C04-L2-1-36-6 (Fab, V domains shown)
VH: EVQLLESGGGLVQPGGSLRLSCAASGFTFSSYWNHWVRQAPGKGLEWVSDMASLSSYTNYADSVKGRFTISRDNSKNTLYLQMNSLRAEDTAVYYCARGLDARRMDYWGQGTLVTVTS
VL: QSVLTQPPSASGTPGQRVTISCTGSSSNIGAGYVVHWYQQLPGTAPKLLIYRNNWRQSGVPDRFSGSKSGTSASLAISGLRSEDEADYYCAAWDDSLNGWLFGGGTKLTVLG
notes: as for B1

In this test the target is T1, extracellular domain of human PRLR (monomeric, soluble) (human, UniProt P16471 25-234).
T1 construct: also called ECD-PRLR; ECD of PRLR
T1 sequence: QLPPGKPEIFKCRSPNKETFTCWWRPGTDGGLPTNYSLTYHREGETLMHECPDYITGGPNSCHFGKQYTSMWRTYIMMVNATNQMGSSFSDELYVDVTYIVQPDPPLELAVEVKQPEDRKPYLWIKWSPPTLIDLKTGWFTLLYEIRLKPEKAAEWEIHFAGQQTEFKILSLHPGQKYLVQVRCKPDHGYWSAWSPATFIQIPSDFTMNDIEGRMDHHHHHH
In words: ELISA: plate coated with human PRLR extracellular domain, Fab-containing E. coli supernatant, anti-flag-HRP, Amplex Red. The procedure: 96 well microtiter plates were coated with 1 μg per milliliter of human PRLR. Plates were incubated over night at 4° C. After blocking with PBS buffer containing 3% bovine serum albumin, normalized E. coli-derived supernatants containing the Fab variants were added. Detection of formed complexes occurred via the addition of an anti-flag antibody (Sigma, A8592) labeled with horseradish peroxidase.
A general note: In an ELISA, binding on a coated surface is turned into a signal by an enzyme label.
Take B1: the binding result is listed as “binds”.

Turning to B2, the binding result is listed as “binds”. B3: the binding result was “binds”. In the case of B4, the binding result is on record as “binds”. As for B5, the binding result is reported as “binds”. B6: the binding result is reported as “binds”. Take B7: the binding result is “binds”. Then B8, with “binds”. The value for B9 was “binds”; that for B10 was “binds”; that for B11 was “binds”. The value for B12 was “binds”; that for B13 was “binds”. In the case of B14, the binding result was “binds”. The value for B15 was “binds”; that for B16 was “binds”; that for B17 was “binds”. In the case of B18, the binding result is “binds”. Consider B19, for which the binding result is “binds”.

Source of the values: patent US20130129739A1 (Bayer, published 2013).
